Data on one variant can be found in article PMC13299607.

Sequences and labels used below:
B1: YFP-RepoMan-wt [not stated] / endogenous PP2A-B56γ [human (endogenous in HeLa)] (parent)
chain 1: MDANSKDKPPETKESAMNNAGNASFILGTGKIVTPQKHAELPPNPCTPDTFKSPLNFSTVTVEQLGITPESFVRNSAGKSSSYLKKCRRRSAVGARGSPETNHLIRFIARQQNIKNARKSPLAQDSPSQGSPALYRNVNTLRERISAFQSAFHSIKENEKMTGCLEFSEAGKESEMTDLTRKEGLSACQQSGFPAVLSSKRRRISYQRDSDENLTDAEGKVIGLQIFNIDTDRACAVETSVDLSEISSKLGSTQSGFLVEESLPLSELTETSNALKVADCVVGKGSSDAVSPDTFTAEVSSDAVPDVRSPATPACRRDLPTPKTFVLRSVLKKPSVKMCLESLQEHCNNLYDDDGTHPSLISNLPNCCKEKEAEDEENFEAPAFLNMRKRKRVTFGEDLSPEVFDESLPANTPLRKGGTPVCKKDFSGLSSLLLEQSPVPEPLPQPDFDDKGENLENIEPLQVSFAVLSSPNKSSISETLSGTDTFSSSNNHEKISSPKVGRITRTSNRRNQLVSVVEESVCNLLNTEVQPCKEKKINRRKSQETKCTKRALPKKSQVLKSCRKKKGKGKKSVQKSLYGERDIASKKPLLSPIPELPEVPEMTPSIPSIRRLGSGYFSSNGKLEEVKTPKNPVKRKDLLRHDPDLHMHQGYDKYDVSEFCSYIKSSSSLGNATSDEDPNTNIMNINENKNIPKAKNKSESENEPKAGTDSPVSCASVTEERVASDSPKPALTLQQGQEFSAGGQNAENLCQFFKISPDLNIKCERKDDFLGAAEGKLQCNRLMPNSQKDCHCLGDVLIENTKESKSQSEDLGRKPMESSSVVSCRDRKDRRRSMCYSDGRSLHLEKNGNHTPSSSVGSSVEISLENSELFKDLSDAIEQTFQRRNSETKVRRSTRLQKDLENEGLVWISLPLPSTSQKAKRRTICTFDSSGFESMSPIKETVSSRQKPQMAPPVSDPENSQGPAAGSSDEPGKRRKSFCISTLANTKATSQFKGYRRRSSLNGKGESSLTALERIEHNGERKQ
chain 2: not shown

In the first test the parent is B1. Kind of test: proximity ligation assay (PLA). Particulars: with endogenous PP2A-B56γ [human (endogenous in HeLa)]; asynchronous; endogenous RepoMan knocked down using siRM; Anti-GFP+B56γ antibodies; median shown in red; read off a plot.
chain 1 P604A: the response (PLA foci per cell) is 10.

Still in this test, the particulars now being: with endogenous PP2A-B56γ [human (endogenous in HeLa)]; monastrol arrested; endogenous RepoMan knocked down using siRM; Anti-GFP+B56γ antibodies; median shown in red; read off a plot.
Regarding chain 1 P604A, the response (PLA foci per cell) was found to be 19.

Variants of B1 are the subject of another test. Kind of test: immunofluorescence, dCas9-DARPin recruitment to ectopic foci on chr 1. The following applies: with mCherry-B56γ; prometaphase-arrested cells; average of 3 independent experiments, 58 (wt) 60 (P604A) cells; read off a plot.
Regarding chain 1 P604A, the response is 0.45.
